In patent US20230357447A1 (JANUX THERAPEUTICS, published 2023):

How the values were obtained:
[1] = molecular target: T1, Anti-CD28 scFv (VH-linker 1-VL) (biotinylated (site not stated)); assay: phage binding ELISA on captured anti-CD28 scFv, wells pre-incubated with soluble CD28 (competitor);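 also: crude clonal phage supernatants added without washing, bound phage detected by HRP-conjugated anti-M13 antibody, control wells held blocking buffer alone instead of CD28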
T1 construct: biotinylated and captured on neutravidin coated plates in the phage ELISA
T1 sequence (scFv, as listed by the source): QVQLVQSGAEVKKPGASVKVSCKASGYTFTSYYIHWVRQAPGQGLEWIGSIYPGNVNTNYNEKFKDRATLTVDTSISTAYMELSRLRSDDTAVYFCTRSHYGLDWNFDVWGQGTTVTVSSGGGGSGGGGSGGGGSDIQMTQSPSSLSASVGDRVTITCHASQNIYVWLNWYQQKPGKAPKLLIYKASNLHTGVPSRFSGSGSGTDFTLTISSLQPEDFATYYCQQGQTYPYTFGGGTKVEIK

[2] = molecular target: T1, Anti-CD28 scFv (VH-linker 1-VL); assay: phage binding ELISA on captured biotinylated anti-CD28 scFv;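 also: crude clonal phage supernatants applied to the wells, bound phage read out with an HRP-conjugated anti-M13 antibody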
Procedure: Clonal phage were harvested as crude supernatants and screened via standard enzyme linked immunosorbent assays (ELISAs). […] Prior to the addition of clonal phage, wells were incubated with blocking buffer and CD28 soluble protein or blocking buffer alone. Without washing or aspirating, clonal phage supernatants were then added to the wells and incubated for a short time. Wells were then washed followed by detection of bound phage using a horse radish peroxidase conjugated anti-M13 antibody.

| Binder | CD28 scFv signal in presence of CD28 [1] | CD28 scFv signal [2] |
| --- | --- | --- |
| IDWCPRALWDACLA [Phage-332] | 0.164 | 2.1 |
| MHWCPLYLWDECFY [Phage-366] | 0.376 | 1.16 |
| MDWCPAYLWDECFA [Phage-325] | 0.163 | 2.17 |
| MDWCPRYLWDECFS [Phage-334] | 0.164 | 2.06 |
| MDWCPRALWNVCFA [Phage-329] | 0.249 | 2.14 |
| MDWCPKPLWHVCFA [Phage-337] | 0.152 | 2.02 |
| MDWCPRTLWDQCFF [Phage-339] | 0.314 | 1.99 |
| MDWCPRALWDHCFN [Phage-328] | 0.293 | 2.15 |
| MDWCPTYLWNVCFA [Phage-323] | 0.132 | 2.21 |
| MDWCPMFLWHECFS [Phage-360] | 0.193 | 1.44 |
| MDWCPRDLWTQCFF [Phage-343] | 0.119 | 1.93 |
| MDWCPRHLWYECFS [Phage-324] | 0.163 | 2.17 |
| MDWCPRYLWLECFN [Phage-354] | 0.368 | 1.69 |
| MDWCPRHLWLECFN [Phage-387] | 0.074 | 0.066 |
| MDWCPSYLWPVCFN [Phage-365] | 0.131 | 1.18 |
| MDWCPTDLWHECFA [Phage-333] | 0.154 | 2.07 |
| IDWCPLHLWHECYH [Phage-353] | 0.182 | 1.69 |
| MDWCPRFLWDYCFA [Phage-335] | 0.207 | 2.03 |
| MDFCPRFLWHECFN [Phage-345] | 0.225 | 1.91 |
| MDWCPRLLWHECFN [Phage-357] | 0.109 | 1.6 |
| MHWCPRDLWHVCFN [Phage-327] | 0.15 | 2.15 |

| Binder | CD28 scFv signal in presence of CD28 [1] | CD28 scFv signal [2] |
| --- | --- | --- |
| MDWCPMYLWDECFF [Phage-356] | 0.178 | 1.65 |
| MDWCPRNLWHECFA [Phage-342] | 0.175 | 1.97 |
| MDWCPMNLWHECFA [Phage-351] | 0.16 | 1.74 |
| MDWCPRPLWHECFA [Phage-359] | 0.138 | 1.44 |
| MDWCPLFLWDQCFN [Phage-347] | 0.264 | 1.82 |
| MDWCPRDLWNWCFN [Phage-336] | 0.39 | 2.03 |
| MDWCPRFLWDVCFN [Phage-330] | 0.309 | 2.14 |
| MSWCPIDLWSECFA [Phage-340] | 0.148 | 1.99 |
| MDWCPRHLWHACFS [Phage-346] | 0.167 | 1.83 |
| MDWCPRILWHECFS [Phage-362] | 0.174 | 1.39 |
| MAWCPWYLWDECFN [Phage-348] | 0.267 | 1.81 |
| MHWCPRHLWSECFN [Phage-361] | 0.478 | 1.43 |
| MDWCPRSLWAQCFY [Phage-364] | 0.14 | 1.39 |
| MFWCPITLWNECFN [Phage-326] | 0.143 | 2.15 |
| MDWCPRHLWVHCFS [Phage-344] | 0.173 | 1.91 |
| MDWCPWFLWNECFN [Phage-350] | 0.279 | 1.77 |
| LDWCPRHLWALCFN [Phage-349] | 0.24 | 1.78 |
| MDWCPRFLWNECFY [Phage-338] | 0.287 | 2 |
| MNWCPMHLWAECFN [Phage-363] | 0.14 | 1.39 |
| MDWCPIHLWYECFN [Phage-352] | 0.203 | 1.73 |
